Experimental data from PMC12649893 (Biosensors, 2025).

B1: AB1 antibody specific to BDCA-2 (BIIB059) (antibody, V domains shown)
VH: DVQLVESGGGLVKPGGSLRLSCAASGFTFSTYTMSWVRQAPGKGLEWVATISPGDSFGYYYPDSVQGRFTISRDNAKNSLYLQMNSLRAEDTAVYYCTRDIYYNYGAWFAYWGQGTLVTVSS
VL: DIQLTQSPSSLSASVGDRVTITCKASQSVDYDGDSYMNWYQQKPGKAPKLLIYAASTLESGVPSRFSGSGSGTDFTLTISSLQPEDFATYYCQQANEDPRTFGQGTKVEIK
B2: AB2 antibody specific to NECL-5 (NTX1088) (antibody, V domains shown)
VH: QVQLVQSGAEVKKPGASVKVSCKATGYTFSNYWIEWVRQAPGQGLEWIGEIFPGSGRINFNEKFKGRVTFTADTSISTTYMELSRLRSDDTAVYYCARTKIYGNSFDYWGQGTLVTVSS
VL: DIQMTQSPSSLSASVGDRVTITCKASQDVGTAVVWYQQKPGKAPKLLIYWASSRHEGVPDRFSGSGSGTDFTLTISSLQPEDFADYFCQQYSRYPLTFGQGTKLEIK

Assays:
Conditions in all cases: both partners purified
[1] = molecular target: T1, Blood dendritic cell antigen 2 of macaca fascicularis (cBDCA-2) extracellular fragment (Macaca fascicularis, UniProt A0A2K5UWP4); assay: BLI; standard measurement of kinetics with the immobilization of antibodies on AR2G sensors (Sartorius)
T1 construct: Blood dendritic cell antigen 2 (BDCA-2) of Macaca fascicularis, extracellular fragment, residues 45-213 of XP_005570080.1; source: CHO, transient transfection, purified (Ni-NTA, SEC Superdex 75)

[2] = molecular target: T1, Blood dendritic cell antigen 2 of …; assay: BLI; biotinylated FcγRIa on SA sensors (5 μg/mL, to 1 nm), antibodies for 300 s, then antigens 10 μg/mL for 600 s; kinetic buffer pH 7.4, 30 °C; constants from the empirical model Equation (A1), k_diss fixed
[3] = molecular target: T1, Blood dendritic cell antigen 2 of …; assay: BLI; biotinylated FcγRIIIa on SA sensors (5 μg/mL, to 1 nm), antibodies for 300 s, then antigens 10 μg/mL for 300 s; kinetic buffer pH 7.4, 30 °C; constants from the empirical model Equation (A1), k_diss fixed
[4] = molecular target: T2, Nectin-like protein 5 (NECL-5 or CD155) extracellular fragment (UniProt P15151); assay: BLI; ProA sensors; antibodies loaded at 10 micrograms/mL for 300 s, antigens 10 μg/mL, association 7200 s; 30 °C, PBS, 0.1% Tween 20, 0.1% BSA, pH 7.4; constants from the empirical model Equation (A1), k_diss fixed
T2 construct: Nectin-like protein 5 (NECL-5, CD155, poliovirus receptor), extracellular fragment, residues 28-343 of NP_001129242.2; also called poliovirus receptor; source: CHO, transient transfection, purified (Ni-NTA, SEC Superdex 75)
T2 sequence (P15151 28-343): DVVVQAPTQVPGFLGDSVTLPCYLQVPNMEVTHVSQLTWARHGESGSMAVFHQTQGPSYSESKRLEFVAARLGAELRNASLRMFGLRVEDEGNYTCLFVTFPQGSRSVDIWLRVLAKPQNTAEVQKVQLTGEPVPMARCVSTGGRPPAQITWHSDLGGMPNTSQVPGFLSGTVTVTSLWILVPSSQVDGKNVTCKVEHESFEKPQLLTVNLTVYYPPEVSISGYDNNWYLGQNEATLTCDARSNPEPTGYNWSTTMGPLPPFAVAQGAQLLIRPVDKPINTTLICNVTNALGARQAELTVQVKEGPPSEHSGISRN

[5] = molecular target: T3, Triggering receptor expressed on myeloid cells 2 (TREM-2) extracellular fragment (UniProt Q9NZC2-1); assay: as above
T3 construct: Triggering receptor expressed on myeloid cells 2 (TREM-2), extracellular fragment, residues 19-174 of NP_061838.1; source: CHO, transient transfection, purified (Ni-NTA, SEC Superdex 75)
T3 sequence (Q9NZC2 19-174): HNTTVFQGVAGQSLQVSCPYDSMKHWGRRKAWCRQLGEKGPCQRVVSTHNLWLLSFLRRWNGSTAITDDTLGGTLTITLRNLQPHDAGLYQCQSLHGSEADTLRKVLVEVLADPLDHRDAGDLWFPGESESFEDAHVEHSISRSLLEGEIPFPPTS

[6] = molecular target: T1, Blood dendritic cell antigen 2 of …; assay: as above
[7] = molecular target: T1, Blood dendritic cell antigen 2 of …; assay: BLI; biotinylated FcRn on SA sensors (5 μg/mL, to 1 nm), antibodies 10 μg/mL for 180 s, then antigens 20 μg/mL for 300 s; kinetic buffer pH 6.0, 30 °C; constants from the empirical model Equation (A1), k_diss fixed
[8] = molecular target: T2, Nectin-like protein 5 (NECL-5 or CD155) …; assay: BLI; standard measurement of kinetics with the immobilization of antibodies on AR2G sensors (Sartorius)
[9] = molecular target: T2, Nectin-like protein 5 (NECL-5 or CD155) …; assay: BLI; biotinylated FcγRIa on SA sensors (5 μg/mL, to 1 nm), antibodies for 300 s, then antigens 10 μg/mL for 600 s; kinetic buffer pH 7.4, 30 °C; constants from the empirical model Equation (A1), k_diss fixed
[10] = molecular target: T2, Nectin-like protein 5 (NECL-5 or CD155) …; assay: BLI; biotinylated FcγRIIIa on SA sensors (5 μg/mL, to 1 nm), antibodies for 300 s, then antigens 10 μg/mL for 300 s; kinetic buffer pH 7.4, 30 °C; constants from the empirical model Equation (A1), k_diss fixed
[11] = molecular target: T1, Blood dendritic cell antigen 2 of …; assay: BLI; ProA sensors; antibodies loaded at 10 micrograms/mL for 300 s, antigens 10 μg/mL, association 7200 s; 30 °C, PBS, 0.1% Tween 20, 0.1% BSA, pH 7.4; constants from the empirical model Equation (A1), k_diss fixed; remark: listed apart in the source
[12] = molecular target: T2, Nectin-like protein 5 (NECL-5 or CD155) …; assay: as above; remark: listed apart in the source
[13] = molecular target: T2, Nectin-like protein 5 (NECL-5 or CD155) …; assay: BLI; biotinylated FcRn on SA sensors (5 μg/mL, to 1 nm), antibodies 10 μg/mL for 180 s, then antigens 20 μg/mL for 300 s; kinetic buffer pH 6.0, 30 °C; constants from the empirical model Equation (A1), k_diss fixed

Row | Binder | koff [1] [s⁻¹] | kon [1] [M⁻¹ s⁻¹] | kon [2] [M⁻¹ s⁻¹] | kon [3] [M⁻¹ s⁻¹] | binding result [4] | binding result [5] | kon [6] [M⁻¹ s⁻¹] | kon [7] [M⁻¹ s⁻¹] | koff [8] [s⁻¹] | kon [8] [M⁻¹ s⁻¹] | kon [9] [M⁻¹ s⁻¹] | kon [10] [M⁻¹ s⁻¹] | binding result [11] | kon [12] [M⁻¹ s⁻¹] | kon [13] [M⁻¹ s⁻¹]
1 | B1 | 3.72e-05 | 134000 | 265000 | 470000 | no binding (tested: 10 μg/mL) | no binding (tested: 10 μg/mL) | 12000 | 180000 | – | – | – | – | – | – | –
2 | B2 | – | – | – | – | – | no binding (tested: 10 μg/mL) | – | – | 0.00105 | 179000 | 99000 | 39500 | no binding (tested: 10 μg/mL) | 52000 | 20000
